Biological target: mCherry-tagged mutant Htt exon 1 (HttQ91)
Test: FRET or BRET

- mean FRET efficiency: 16.3%
Substance: YFP-tagged wild-type Htt exon 1 (HttQ25) (domain or fragment)

Reference: PMC4515032
